We go through 30 sequences from the supplement of paper PMC9170038.

The test system of the series is MS2 coat protein. Briefly: apparent KD of MS2 coat protein; designed switch direction (-1 OFF switch, 1 ON switch): -1; higher = weaker reporter binding. In outline: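 Designed RNA switches with common flanks were transcribed on Illumina chips by stalled E. coli RNA polymerase and titrated with SNAP-549-labelled MS2 coat protein, from 0.7 or 1.5 nM doubling to 3 µM, in Tris-HCl pH 7.5 buffer with KCl, MgCl2, BSA, DTT, tRNA and Tween-20. Steps lasted 0.8–1.5 h (lowest) to 10–20 min (highest). Titrations ran without input, with 200 uM small-molecule ligand, or with an oligonucleotide input. Normalised cluster fluorescence was curve-fitted, and apparent KD is the per-design median over clusters.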

[1] abbreviates: Eterna round: R95, input ligand: FMN 200 uM.
Setting [2] is: Eterna round: R95, input ligand: microRNA oligo, concentration not stated.
Where [3] appears, read: Eterna round: R95, input ligand: none.
Where [4] appears, read: input ligand: microRNA oligo, concentration not stated.

For the sequence “UUUUAACAUGAGGAUCACCCAUGUGAGGAUAUGGUUUUUUUUUUUUUUUUUUUUUUUUCCAGAAGGCACAUUUU [My solution] (puzzle: Exclusion 1)”, the “apparent KD of MS2 coat protein” value by setting is: under setting [1], 0.0254 µM; under setting [2], 0.0137 µM; under setting [3], 0.119 µM.
With “AGAAGUAGUAACCGAUCCUACAUGAGGAUCACCCAUGUAGCUAGACGUGCACGCGAAGCUCGUCAGACUACCAGAUG [salish99_TOv1_r3_023] (puzzle: Sensor v3, turn-off variant 1)”, the “apparent KD of MS2 coat protein” value is 0.298 µM under setting [1], 0.273 µM under setting [2] and 0.212 µM under setting [3].
On to “UGAGUGCUGCGAGGAUAUACAUGAGGAUCACCCAUGUUUUCGUGUGAGGCUUUGCCUCACACGAAGUAGAAGGCGCAGUACUCU [JL ENG2 1.12] (Eterna round: R96, puzzle: Exclusion NG 2)”, for which the “apparent KD of MS2 coat protein” value (input ligand: FMN 200 uM) came out at 0.0108 µM, the “apparent KD of MS2 coat protein” value under setting [4] is 0.0118 µM and the “apparent KD of MS2 coat protein” value (input ligand: none) turned out to be 0.0123 µM.
As for “CCGCAGUGAGGAUAUUGUCAUAGACGGUGUGAAUCACGGGACAAGAAGGUACAUGAGGAUCACCCAUGUGGGUG [Eternabot (L1) Solution 1] (Eterna round: R97, puzzle: Exclusion 4)”, the “apparent KD of MS2 coat protein” value (input ligand: FMN 200 uM) came to 0.0543 µM and the “apparent KD of MS2 coat protein” value (input ligand: none) came out at 1.56 µM.
As for “CGGUGCUUCUGGAAACAUGAGGAUCACCCAUGUUGAGUUAGCGAGGAUAUCGGUAACACAUGUCACGAGAAGGCGCGAACCAGA [Ex NG3 #34] (Eterna round: R96, puzzle: Exclusion NG 3)”, the “apparent KD of MS2 coat protein” value by setting is: (input ligand: FMN 200 uM) 0.0104 µM; under setting [4], 0.013 µM; (input ligand: none) 0.0167 µM.
For the sequence “GCAAUUUCAAAGGAUAUACCUAAUUAACUAUCGGUAGAAGGUUGGACAUGAGGAUCACCCAUGUGCUCACACUU [Eternabot (L2) Solution 67] (Eterna round: R97, puzzle: Exclusion 6)”, the “apparent KD of MS2 coat protein” value is, setting by setting: (input ligand: FMN 200 uM) 0.0159 µM; (input ligand: none) 0.0156 µM.
As for “AGGUCACAUGAGGAUCACCCAUGUCAGGAUAUCUACAUUGAAGCCUCGGCUUCAAUGUAGAGAAGGGACAAUUA [E1/6-B2] (Eterna round: R97, puzzle: Exclusion 1)”, the “apparent KD of MS2 coat protein” value (input ligand: FMN 200 uM) is 0.209 µM and the “apparent KD of MS2 coat protein” value (input ligand: none) worked out at 0.0722 µM.
Take “UUUUAGUCAGGAUAUACAUGAGGAUCACCCAUGUAAAAUUUUAAUUUAAUUUGAAGGUGUAGAAGGGACAUUUU [Ex3 #40] (Eterna round: R97, puzzle: Exclusion 3)”: the “apparent KD of MS2 coat protein” value reads like this: (input ligand: FMN 200 uM) 0.0259 µM; (input ligand: none) 0.0278 µM.
Regarding “UAAUUAAGUGUGAGGAUAUGCUGGUCCUUGGAUCAGCAGAAGGCACAUGAGGAUCACCCAUGUAAAUUAUUUAU [Mat - Exclusion 4 - JL Mod - D60] (puzzle: Brourd's mod of Exclusion 4)”, the “apparent KD of MS2 coat protein” value under setting [2] was 0.0732 µM.
Turning to “UUUUUGUGAGGAUAUCAGUAGUAAAUAAAUAAAAUAACUACUGAGAAGGCACAUGAGGAUCACCCAUGUUCUUU [Mat - Exclusion 4 - Mod of Salish - D67] (puzzle: Exclusion 4)”, the “apparent KD of MS2 coat protein” value under setting [2] was 0.0171 µM.
Consider “GUUUUCAGACGGAGAUCCUACAUGAGGAUCACCCAUGUCUCUCUUGUUUUUUGCUCGUCUUAUCCUCCUCUGUUCUC [Elimod 31 - Jieux - Sensor, turn-off variant 1] (Eterna round: R97, puzzle: Sensor, turn-off variant 1)”, for which the “apparent KD of MS2 coat protein” value runs as follows: (input ligand: FMN 200 uM) 0.467 µM; (input ligand: none) 0.52 µM.
Consider “UUCGGCGGAGGAUAUACAGUUUUUUGUUGAAUCGGCGGGAAACAUGAGGAUCACCCAUGUAGAAGGUUGUUGAA [-18.7, -16.7 kcal, A 27%] (Eterna round: R97, puzzle: Exclusion 2)”, for which the “apparent KD of MS2 coat protein” value stood at 0.0633 µM (input ligand: FMN 200 uM) and 0.078 µM (input ligand: none).
As for “AGGUACUUCAGGAGACAUGAGGAUCACCCAUGUUGAGUUAGCGAGGAUAUCGGUAACCAUUGUUAUGAGAAGGCGCAAACCAGA [Ex NG3 #42] (Eterna round: R96, puzzle: Exclusion NG 3)”, the “apparent KD of MS2 coat protein” value (input ligand: FMN 200 uM) worked out at 0.0259 µM, the “apparent KD of MS2 coat protein” value under setting [4] is 0.015 µM and the “apparent KD of MS2 coat protein” value (input ligand: none) turned out to be 0.0153 µM.
On to “UUUUAACAUGAGGAUCACCCAUGUGAGGAUAUCGAAAUUUAUAUUAAUAUUAUUUAUUCGAGAAGGCACAUUUU [JMF 45] (puzzle: Exclusion 1)”, for which, under setting [2], the “apparent KD of MS2 coat protein” value worked out at 0.118 µM.
“UCCUUGUUAGGAUAUUGCCUGUGGGCUAAUCUGAAUACAGGUAAGAAGGGACAUGAGGAUCACCCAUGUGACAA [Eternabot (Original) Solution 32] (Eterna round: R97, puzzle: Exclusion 4)”: the “apparent KD of MS2 coat protein” value reads like this: (input ligand: FMN 200 uM) 0.0393 µM; (input ligand: none) 0.0288 µM.
For “AGCGGGUUAGGAUAUACCUGGGUAUGAAAAGCCUAACCUCGACAUGAGGAUCACCCAUGUAGAAGGAGCUCGGC [Eternabot (Original) Solution 3] (Eterna round: R97, puzzle: Exclusion 2)”, the “apparent KD of MS2 coat protein” value by setting is: (input ligand: FMN 200 uM) 0.091 µM; (input ligand: none) 0.0369 µM.
As for “CUGCUCCGUGUAGGAUAUGCAUACUCCCAUUAUGCAGAAGGACAUGAGGAUCACCCAUGUAUGUUAUUAUCACGUGUAGCGUAC [Design 15] (Eterna round: R96, puzzle: Exclusion NG 1)”, the “apparent KD of MS2 coat protein” value runs as follows: (input ligand: FMN 200 uM) 0.104 µM; under setting [4], 0.0212 µM; (input ligand: none) 0.0299 µM.
On to “AAGAUUAGGAAAGGAUAUAAAGAGAAACAAAGUGCACAUGAGGAUCACCCAUGUACUGACACGCGUUAGAAGGUUCCAGUCCUC [Eternabot solution 40] (Eterna round: R96, puzzle: Exclusion NG 2)”, for which the “apparent KD of MS2 coat protein” value reads like this: (input ligand: FMN 200 uM) 0.0181 µM; under setting [4], 0.0155 µM; (input ligand: none) 0.0254 µM.
Consider “UUUAAUUUUUUUUUUUUACAAGCUUUUUGCUCGUCUUAUACAUGAGGAUCACCCAUGUGGGUGGAGGGUAAAUUAUC [JMF 89] (puzzle: Sensor v3, turn-off variant 2)”, for which the “apparent KD of MS2 coat protein” value by setting is: under setting [1], 0.0359 µM; under setting [2], 0.0636 µM; under setting [3], 0.067 µM.
In the case of “UAAUUAAUUAAUUAAUAAUACAUGAGGAUCACCCAUGUAGAUCCUACAUACAAGCUUUGUAGCUCGUCUUAUAAUUA [Stov1/3-A1] (Eterna round: R97, puzzle: Sensor, turn-off variant 1)”, the “apparent KD of MS2 coat protein” value runs as follows: (input ligand: FMN 200 uM) 0.214 µM; (input ligand: none) 0.337 µM.
For “UUUGUUUAUGUAGGAUAUGCCUGGCGUGCCUUUGCAGAAGGACAUGAGGAUCACCCAUGUAUUGCGGUCUGCGUUCAGAUCGCC [salish99_ExNG1_r4_036] (Eterna round: R96, puzzle: Exclusion NG 1)”, the “apparent KD of MS2 coat protein” value stood at 0.0296 µM (input ligand: FMN 200 uM), 0.0174 µM under setting [4] and 0.023 µM (input ligand: none).
On to “UCUGUACAUCCCAAGCAUAACAUGAGGAUCACCCAUGUUGAACAAAACGUCGGUCCUGCUGCUCGUCGAAGGAAUAG [Eternabot (Original) Solution 8] (Eterna round: R97, puzzle: Sensor, turn-off variant 1)”, for which the “apparent KD of MS2 coat protein” value is, setting by setting: (input ligand: FMN 200 uM) 0.0474 µM; (input ligand: none) 0.0475 µM.
As for “UAUCGGCGGACCCAGGCUUUUUGCUCGUCUUAUGCUAUGACAUGAGGAUCACCCAUGUGGUGGUGGUCCGUUGUAGU [JL ViennaUCT Bitein mod 11] (puzzle: Sensor v3, turn-off variant 2)”, the “apparent KD of MS2 coat protein” value was found to be 0.0211 µM under setting [1], 0.0113 µM under setting [2] and 0.0195 µM under setting [3].
For the sequence “GCGUGACAUGAGGAUCACCCAUGUGAGGAUAUCUGGACACUCUUUAUUUUAGAUGUCCAGAGAAGGCACAUGCU [Ex1-3: 5Z] (puzzle: Exclusion 1)”, the “apparent KD of MS2 coat protein” value under setting [2] turned out to be 0.22 µM.
In the case of “GGGCUCGGAGGAUAUACAAUGGGCUCGGGAAAUCGGGCUCUACAUGAGGAUCACCCAUGUAGAAGGUCGGGCUC [-38.9, -35.6 kcal A 24%, 4,4] (Eterna round: R97, puzzle: Exclusion 2)”, the “apparent KD of MS2 coat protein” value (input ligand: FMN 200 uM) worked out at 0.0164 µM and the “apparent KD of MS2 coat protein” value (input ligand: none) came out at 0.0141 µM.
For “AGGAGGAGUUCAGGAUAUUCGACAUGAGGAUCACCCAUGUGGGUAAUAUAUAGUAAAGAGAUAGAGAAGAAGGGAAGGGAGGAG [Exclusion NG2] (Eterna round: R96, puzzle: Exclusion NG 2)”, the “apparent KD of MS2 coat protein” value came to 0.0425 µM (input ligand: FMN 200 uM), 0.0235 µM under setting [4] and 0.036 µM (input ligand: none).
For “CCGUUCCGUGUAGGAUAUUGGCCUUCCUCGGGCCGAGAAGGACAUGAGGAUCACCCAUGUAUGCUAUUAUCGCGCGUGGCGCAC [Design 97] (Eterna round: R96, puzzle: Exclusion NG 1)”, in that order: 0.158 µM, 0.0226 µM and 0.0391 µM.
For “GAGGAGCAAGGAUAUACGAGGAUAUGGUAGUUUGUAGAGUGACAUGAGGAUCACCCAUGUAGAAGGUGCGAGGG [JR_Exclu2_Sub099] (puzzle: Exclusion 2)”, under setting [2], the “apparent KD of MS2 coat protein” value is 0.0417 µM.
As to “AAGAAGCUAGGAUAUCACACUGACAACAUGAGGAUCACCCAUGUAGGUGAUCGGUUAGCUUGAGAAGGAGCGGAGG [Laedanes] (puzzle: Exclusion 5)”, the “apparent KD of MS2 coat protein” value runs as follows: under setting [1], 0.0835 µM; under setting [2], 0.0469 µM; under setting [3], 0.0783 µM.
Regarding “CUGGUCCGAGGAUAUAUUAUGUGAUACAUGAGGAUCACCCAUGUUAUAUGAUGGAUAUUAAUAGAAGGCGGACUAG [Mat - Exclusion 5 - JL mod - D73] (puzzle: Exclusion 5)”, the “apparent KD of MS2 coat protein” value by setting is: under setting [1], 0.0855 µM; under setting [2], 0.0715 µM; under setting [3], 0.0839 µM.
